Biological target: the molecule itself
Test: cryo-EM structure

B1: E. coli CTP synthase (ecCTPS), wild type (enzyme)
chain: MTTNYIFVTGGVVSSLGKGIAAASLAAILEARGLNVTIMKLDPYINVDPGTMSPIQHGEVFVTEDGAETDLDLGHYERFIRTKMSRRNNFTTGRIYSDVLRKERRGDYLGATVQVIPHITNAIKERVLEGGEGHDVVLVEIGGTVGDIESLPFLEAIRQMAVEIGREHTLFMHLTLVPYMAASGEVKTKPTQHSVKELLSIGIQPDILICRSDRAVPANERAKIALFCNVPEKAVISLKDVDSIYKIPGLLKSQGLDDYICKRFSLNCPEANLSEWEQVIFEEANPVSEVTIGMVGKYIELPDAYKSVIEALKHGGLKNRVSVNIKLIDSQDVETRGVEILKGLDAILVPGGFGYRGVEGMITTARFARENNIPYLGICLGMQVALIDYARHVANMENANSTEFVPDCKYPVVALITEWRDENGNVEVRSEKSDLGGTMRLGAQQCQLVDDSLVRQLYNAPTIVERHRHRYEVNNMLLKQIEDAGLRVAGRSGDDQLVEIIEVPNHPWFVACQFHPEFTSTPRDGHPLFAGFVKAASEFQKRQAK
- stoichiometry N: 4
